{"source": "patent US20130224191A1", "about": "“NOTUM PROTEIN MODULATORS AND METHODS OF USE” (priority 2010, published 2013)", "molecules": {"B1": {"name": "SC2.D2.2 (antibody, V domains shown)", "VH": "DVQLVESGGGLVQPGGSRKISCAASGFTFSSYGMHWVRQAPEKGLEWVAYISSSTVTTYYADTVKGRFTISRDNANNTLFLQMTSLRSEDTAMYYCSRQNWDGGYFDVWGAGTTVTVSS", "VL": "DIVLTQSLASLAVSLGQRATISCRASKSVSSSGYSYMHWYQQKPGQPPKLLIYLASNLESGVPARFSGSGSGTDFTLNIHPVEEEDAATYYCQHSRALPLTFGAGTKLELKR", "notes": "also called murine SC2.D2.2"}}, "key": {"hNotum-Fc": {"target": "T1, hNotum-Fc (Homo sapiens, UniProt Q6P988)", "T1 construct": "IL-2 signal peptide (N); made in house; host or cells: CHO-S", "T1 sequence (Q6P988 with tags, fused parts or gaps)": "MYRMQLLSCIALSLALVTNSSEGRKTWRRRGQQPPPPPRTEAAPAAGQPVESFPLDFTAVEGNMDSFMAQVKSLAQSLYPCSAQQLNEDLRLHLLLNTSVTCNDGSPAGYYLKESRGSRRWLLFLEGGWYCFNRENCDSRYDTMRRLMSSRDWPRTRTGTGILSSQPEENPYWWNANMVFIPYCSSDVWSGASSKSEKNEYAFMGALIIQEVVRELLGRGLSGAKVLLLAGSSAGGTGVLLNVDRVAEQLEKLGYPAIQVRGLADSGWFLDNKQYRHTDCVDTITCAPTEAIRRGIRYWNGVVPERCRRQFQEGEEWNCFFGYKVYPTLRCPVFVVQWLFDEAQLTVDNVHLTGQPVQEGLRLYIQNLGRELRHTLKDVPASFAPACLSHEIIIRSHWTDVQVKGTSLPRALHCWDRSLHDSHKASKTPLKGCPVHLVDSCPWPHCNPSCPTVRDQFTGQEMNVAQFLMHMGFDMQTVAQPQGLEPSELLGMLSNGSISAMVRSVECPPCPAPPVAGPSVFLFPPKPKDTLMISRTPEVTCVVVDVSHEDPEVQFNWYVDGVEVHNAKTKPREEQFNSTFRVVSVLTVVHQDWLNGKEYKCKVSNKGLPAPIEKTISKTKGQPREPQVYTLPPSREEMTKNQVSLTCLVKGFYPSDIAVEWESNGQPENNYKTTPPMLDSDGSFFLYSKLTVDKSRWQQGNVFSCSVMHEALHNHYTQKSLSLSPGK", "assay": "Triton X114 partition assay, blocking of hNotum-Fc", "assay_type": "biochemical", "details": "hNotum-Fc preincubated with antibody", "source_text": "If Notum directly acts upon Wnt3A to delipidate the protein, this cleavage should result in a change in the hydrophobicity of the protein, which can be measured by a change in its partitioning behavior between aqueous and detergent phases in a Triton X114 partition assay (Bordier, 1981, PMID: 6257680): lipidated Wnt3A will be found in the […], whereas delipidated Wnt3A should show up in the […] (Willert et al., 2003, PMID: 12717451). […] An equal volume of 4.5% Triton X114 was added to the mixture, the mixture incubated on ice for 5 minutes, then at 37° C. for five minutes, before separating the phases using centrifugation at 2000×g for five minutes at room temperature. Following separation each sample was adjusted to normalize the ionic strength and Triton X114 content before analyzing the aliquots by PAGE electrophoresis. After running the gel the protein bands were transferred to a membrane for immunoblotting using an anti-rhWnt3A antibody (Cell Signaling Technology). Bands were visualized using SuperSignal West Pico Chemiluminescent substrate (Thermo Fisher Scientific).\nLane 1 is a positive molecular weight marker for rhWnt3A while the presence or absence of reagents in each aliquot is noted above the respective lane (where a is the aqueous fraction and t is Triton X-114 fraction, and the sliding bar indicates the concentration of Notum modulator). […]"}, "[1]": {"target": "T2, chimeric human/mouse Notum (Homo sapiens, UniProt Q6P988, A205S/A256S/E196D/E289D/E487K/H276R/H373G/H396Y/K251E/L360Q/L418F/L429M/L483M/M474V/N299S/P379Q/P480Q/Q248L/Q311K/R218K/R307Q/R361W/S193P/T277S/T284N/V280I/V301M/V434F/V452I/Y171H)", "T2 construct": "human mature Notum protein (residues 19-144) fused to the mouse Notum (mouse residues 150-484); His tag; made in house", "T2 sequence (Q6P988 with tags, fused parts or gaps Y171H/S193P/E196D/A205S/R218K/Q248L/K251E/A256S/H276R/T277S/V280I/T284N/E289D/N299S/V301M/R307Q/Q311K/L360Q/R361W/H373G/P379Q/H396Y/L418F/L429M/V434F/V452I/M474V/P480Q/L483M/E487K)": "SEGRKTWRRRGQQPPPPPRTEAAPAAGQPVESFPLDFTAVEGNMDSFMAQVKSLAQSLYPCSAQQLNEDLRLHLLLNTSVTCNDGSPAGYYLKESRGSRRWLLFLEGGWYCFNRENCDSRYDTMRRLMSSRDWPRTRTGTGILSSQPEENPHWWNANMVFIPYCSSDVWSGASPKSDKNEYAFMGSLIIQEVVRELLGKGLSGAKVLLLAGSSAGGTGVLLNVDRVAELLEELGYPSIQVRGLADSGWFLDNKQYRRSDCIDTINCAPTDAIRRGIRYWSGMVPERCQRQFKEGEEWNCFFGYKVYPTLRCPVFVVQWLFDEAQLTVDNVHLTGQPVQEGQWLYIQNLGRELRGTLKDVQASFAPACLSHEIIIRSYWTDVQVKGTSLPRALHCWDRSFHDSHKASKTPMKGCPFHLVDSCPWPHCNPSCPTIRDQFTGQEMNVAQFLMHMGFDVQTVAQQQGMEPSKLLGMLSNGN", "assay": "Epitope mapping ELISA, chimeric Notum", "assay_type": "binding", "source_text": "To better understand the structural basis for the interaction of SC2.D2.2 with human Notum, a chimeric Notum protein was fabricated. This approach takes advantage of the fact that the orthologs are structurally related. To that end a chimeric Notum molecule composed of the N terminal of the human mature Notum protein (residues 19-144) fused to the mouse Notum (mouse residues 150-484) (genes both consistent with Example 7) was generated and expressed in a similar manner to that set forth in previous Examples. The BamHI restriction cleavage site in human Notum gene was used for construction of in-frame fusion Notum chimeric protein. An expression vector was then constructed containing the His tagged chimeric Notum sequence.\nBinding of SC2.D2.2 and other mouse mAbs to purified Notum molecules generated from transient transfection of Human and Mouse Notum cDNAs were tested using ELISA assay with human Notum, mouse Notum and chimeric human/mouse Notum coated directly on ELISA plate. Binding of anti-Notum mAbs was detected with HRP-conjugated goat anti mouse antibody and followed by colorimetric horseradish peroxidase substrate (TMB substrate Thermo Scientific). The absorbance of each well of the ELISA plates was measured at 450 nm on a microplate autoreader."}, "[2]": {"tested_on": "Wnt3A-mediated induction of luciferase in the 293.TCF cells", "assay": "Wnt3A canonical signaling assay, bioactivity of Notum constructs", "assay_type": "cell-based, human", "details": "without added Notum", "in_short": "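293.TCF cells (HEK 293T stably carrying a TCF-driven GFP/luciferase reporter), 2.5×10^4 per well, serum-starved 23 h, then given Notum proteins 1 h before Wnt3A or control L-cell conditioned medium.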"}}}
{"molecule": "B1", "values": [{"measurement": "blocking of Notum induced redistribution of rhWnt3A", "setting": "hNotum-Fc", "value": "can be blocked"}, {"measurement": "binding to Notum chimeric protein", "setting": "[1]", "value": "confirmed the binding"}, {"measurement": "location of epitope", "setting": "[1]", "value": "within the first 135 residues of the N terminus of the human Notum protein"}, {"measurement": "effect of antibody alone on induction of luciferase due to Wnt3A CM", "setting": "[2]", "value": "does not inhibit the induction of luciferase due to Wnt3A CM"}]}
